Reference: patent US20230012273A1 (Boehringer Ingelheim, published 2023)
Positions count from the first letter of the chain named.

T1: cynoSIRPα (XP_015313155), Extracellular Domain + His-Tag (cynomolgus monkey)
T1 construct: also called CySIRPα XP_015313155; not shown: His-Tag
T1 chain: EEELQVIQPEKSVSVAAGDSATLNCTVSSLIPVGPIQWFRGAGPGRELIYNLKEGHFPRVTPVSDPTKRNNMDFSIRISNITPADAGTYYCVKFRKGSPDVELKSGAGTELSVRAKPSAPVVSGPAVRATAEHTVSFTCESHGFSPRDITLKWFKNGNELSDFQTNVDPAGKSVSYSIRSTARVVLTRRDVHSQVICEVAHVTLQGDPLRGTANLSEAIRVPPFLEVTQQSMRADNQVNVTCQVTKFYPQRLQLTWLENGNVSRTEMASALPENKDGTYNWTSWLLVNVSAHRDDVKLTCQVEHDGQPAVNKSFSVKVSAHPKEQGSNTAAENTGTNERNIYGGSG

T2: cynoSIRPα (NP_001271679), Extracellular Domain + His-Tag (cynomolgus monkey)
T2 construct: also called CySIRPα NP_001271679; not shown: His-Tag
T2 chain: T1 chain with P62A, F163V, V185L

T3: cynoSIRPα (EGM_02252), Extracellular Domain + His-Tag (cynomolgus monkey)
T3 construct: also called CySIRPα EGM_02252; not shown: His-Tag
T3 chain: T1 chain with D19E, V27A, S28T, A42V, N51H, L52Q, V227F, T245M

B1: Antibody E2 (antibody, human IgG1, kappa, L234A L235A, V domains shown)
VH: QVQLQESGPGLVRPSETLSLTCTVSGGSIRNYYWSWIRQPPGKGLEWIGFIYYNGRTFYNPSLKSRVTISLDMSINQFSLKMTSVTAADTAVYYCARVRAYSGIGLDGTDVWGQGTTVTVSS
VL: DIVMTQSPLSLPVTPGEPASISCKSSQSLLYSNGYAYLDWYLQRPGQSPQLLIYLGSNRASGVPDRFSGSGSGTDFTLKISRVEAEDVGVYYCMQALQTPLTFGGGTKVEIKR
B2: Antibody E6 (antibody, human IgG1, kappa, L234A L235A, V domains shown)
VH: B1 VH with M73K, I75K
VL: B1 VL
B3: Antibody E5 (antibody, human IgG1, kappa, L234A L235A, V domains shown)
VH: B1 VH with M73K, I75K
VL: B1 VL with L55Q, Y91F
B4: Antibody E17 (antibody, human IgG1, kappa, L234A L235A, V domains shown)
VH: B1 VH with I48M, Y53D, I75M
VL: B1 VL with G34A, A36N
B5: Antibody E18 (antibody, human IgG1, kappa, L234A L235A, V domains shown)
VH: B1 VH with N54T, I75K
VL: B1 VL
B6: Antibody E21 (antibody, human IgG1, kappa, L234A L235A, V domains shown)
VH: B1 VH with N54T, I75K
VL: B1 VL with G34A, A36N
B7: Antibody E20 (antibody, human IgG1, kappa, L234A L235A, V domains shown)
VH: B1 VH with N54T
VL: B1 VL with G34A, A36N
B8: Antibody E19 (antibody, human IgG1, kappa, L234A L235A, V domains shown)
VH: B1 VH with N54T, I75K
VL: B1 VL with L55Q, Y91F
B9: Antibody A (antibody, human IgG1, kappa, L234A L235A)
heavy: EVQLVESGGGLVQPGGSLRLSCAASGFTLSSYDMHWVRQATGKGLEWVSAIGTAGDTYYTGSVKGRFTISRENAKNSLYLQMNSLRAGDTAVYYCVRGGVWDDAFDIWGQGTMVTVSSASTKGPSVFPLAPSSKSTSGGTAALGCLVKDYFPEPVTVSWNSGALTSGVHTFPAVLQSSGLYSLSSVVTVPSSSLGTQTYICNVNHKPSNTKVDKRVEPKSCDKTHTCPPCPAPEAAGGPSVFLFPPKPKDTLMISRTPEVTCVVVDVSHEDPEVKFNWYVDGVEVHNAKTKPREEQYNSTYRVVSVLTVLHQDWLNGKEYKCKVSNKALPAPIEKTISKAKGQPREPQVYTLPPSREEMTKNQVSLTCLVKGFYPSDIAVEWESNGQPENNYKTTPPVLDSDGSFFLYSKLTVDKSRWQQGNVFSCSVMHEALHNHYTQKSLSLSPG
light: DIQMTQSPSSLSASVGDRVTITCRASQDINNYLAWFQQKPGKAPKSLIYTASSLHSGVPSKFSGSGSGTDFTLTISSLQPEDFATYYCQQYVSYPYTFGQGTKLEIKRTVAAPSVFIFPPSDEQLKSGTASVVCLLNNFYPREAKVQWKVDNALQSGNSQESVTEQDSKDSTYSLSSTLTLSKADYEKHKVYACEVTHQGLSSPVTKSFNRGEC

Molecular target: T4, human SIRPγ extracellular domain + His-tag (NP_061026.2) (human, UniProt Q9P1W8 29-360)
T4 construct: also called hSIRPγ; HuSIRPγ
T4 sequence (Q9P1W8 29-360): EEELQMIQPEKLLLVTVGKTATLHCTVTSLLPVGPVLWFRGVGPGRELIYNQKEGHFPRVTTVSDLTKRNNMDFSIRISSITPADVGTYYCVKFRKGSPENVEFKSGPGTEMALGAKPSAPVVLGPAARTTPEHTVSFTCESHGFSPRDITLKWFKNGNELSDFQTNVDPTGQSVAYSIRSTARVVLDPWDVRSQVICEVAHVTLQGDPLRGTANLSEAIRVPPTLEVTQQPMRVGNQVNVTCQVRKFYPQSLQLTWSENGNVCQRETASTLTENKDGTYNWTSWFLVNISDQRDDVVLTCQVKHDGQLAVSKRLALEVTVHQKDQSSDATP
Assay: SPR, Ab captured, ECD-His analyte
Experimental: (§1) The binding affinity of anti-SIRPα antibodies to the various SIRPα analytes is determined by surface plasmon resonance (SPR) using a ProteOn XPR36 (Bio-Rad). The running buffer for this experiment and all dilutions (except where stated) are done in 1×HBS-EP+. […] The sensorchip is deactivated with 1M ethanolamine HCl for 420 sec at a flowrate of 10 μl/min.
(§2) The analyte is injected over the captured antibody for 300 sec at a flowrate of 30 μl/min. The dissociation is done for 600 sec. Two-fold serial dilutions of each SIRP protein (Extracellular Domain+His-Tag) are injected as analyte with the highest concentrations indicated in table 36 below.

binding result | Binder
no binding (tested: 1000 nM) | B1
no binding (tested: 1000 nM) | B2
no binding (tested: 1000 nM) | B3

Molecular target: T5, human SIRPαV2 extracellular domain + His-tag (CAA71403.1) (human, UniProt P78324 31-373)
T5 construct: also called hSIRPαV2; HuSIRPαV2
T5 sequence (P78324 other isoform, or with tags, fused parts or gaps): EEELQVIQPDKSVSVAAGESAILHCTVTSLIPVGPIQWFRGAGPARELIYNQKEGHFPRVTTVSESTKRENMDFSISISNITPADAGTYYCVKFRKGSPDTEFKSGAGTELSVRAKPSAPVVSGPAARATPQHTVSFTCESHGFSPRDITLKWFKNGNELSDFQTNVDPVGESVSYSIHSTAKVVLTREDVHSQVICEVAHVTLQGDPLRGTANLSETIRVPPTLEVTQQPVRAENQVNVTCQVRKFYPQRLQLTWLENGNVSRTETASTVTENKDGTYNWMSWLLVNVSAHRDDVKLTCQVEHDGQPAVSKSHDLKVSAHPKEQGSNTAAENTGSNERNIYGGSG
Assay: SPR, Ab captured, ECD-His analyte
Experimental: as §1, §2

Kd | Binder
0.687 nM | B1
0.875 nM | B2
0.873 nM | B3

Molecular target: T6, human SIRPβL/SIRPβ1v3 extracellular domain + His-tag (NP_001129316.1) (human, UniProt Q5TFQ8 30-371)
T6 construct: also called hSIRPβ1v3; HuSIRPβ1v3
T6 sequence (Q5TFQ8 other isoform, or with tags, fused parts or gaps): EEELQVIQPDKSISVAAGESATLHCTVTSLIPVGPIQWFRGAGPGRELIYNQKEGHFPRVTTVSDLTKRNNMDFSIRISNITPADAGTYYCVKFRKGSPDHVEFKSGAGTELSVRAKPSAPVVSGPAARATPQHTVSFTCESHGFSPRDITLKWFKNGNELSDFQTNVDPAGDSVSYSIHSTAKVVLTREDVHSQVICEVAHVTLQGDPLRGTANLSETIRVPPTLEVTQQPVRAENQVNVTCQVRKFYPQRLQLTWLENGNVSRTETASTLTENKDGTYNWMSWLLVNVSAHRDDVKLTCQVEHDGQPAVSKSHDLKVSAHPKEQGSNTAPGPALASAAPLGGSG
Assay: SPR, Ab captured, ECD-His analyte
Experimental: as §1, §2

Kd | Binder
1.93 nM | B1
2.72 nM | B2
2.72 nM | B3

Molecular target: T7, human SIRPβ1 extracellular domain + His-tag (NP_006056.2) (human, UniProt O00241 30-371)
T7 construct: also called hSIRPβ1; HuSIRPβ1
T7 sequence (O00241 other isoform, or with tags, fused parts or gaps): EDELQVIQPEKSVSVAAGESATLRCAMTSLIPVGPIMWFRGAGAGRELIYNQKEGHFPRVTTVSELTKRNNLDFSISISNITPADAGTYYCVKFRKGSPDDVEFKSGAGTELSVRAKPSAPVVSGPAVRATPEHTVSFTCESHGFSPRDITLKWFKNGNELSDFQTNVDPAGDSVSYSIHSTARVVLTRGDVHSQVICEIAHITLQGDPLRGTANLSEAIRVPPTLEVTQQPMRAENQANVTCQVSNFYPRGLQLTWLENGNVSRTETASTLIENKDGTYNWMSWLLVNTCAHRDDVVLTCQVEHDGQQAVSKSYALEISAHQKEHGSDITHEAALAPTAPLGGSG
Assay: SPR, Ab captured, ECD-His analyte
Experimental: as §1, §2

binding result | Kd | Binder
no binding (tested: 1000 nM) |  | B1
no binding (tested: 1000 nM) |  | B2
 | 1380 nM | B3

Molecular target: T8, human SIRPαV1 extracellular domain + His-tag (NP_542970.1) (human, UniProt P78324 31-373)
T8 construct: also called hSIRPαV1; HuSIRPαV1
T8 sequence (P78324 other isoform, or with tags, fused parts or gaps): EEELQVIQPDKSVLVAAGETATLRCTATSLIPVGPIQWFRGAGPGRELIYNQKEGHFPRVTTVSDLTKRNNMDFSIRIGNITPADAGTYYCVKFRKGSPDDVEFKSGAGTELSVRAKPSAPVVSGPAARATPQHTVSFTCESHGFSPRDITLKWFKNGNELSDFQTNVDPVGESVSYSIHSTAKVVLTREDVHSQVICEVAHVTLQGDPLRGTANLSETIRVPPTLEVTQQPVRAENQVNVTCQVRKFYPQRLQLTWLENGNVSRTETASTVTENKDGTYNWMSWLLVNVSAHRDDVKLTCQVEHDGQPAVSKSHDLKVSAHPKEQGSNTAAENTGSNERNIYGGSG
Assay: SPR, Ab captured, ECD-His analyte
Experimental: as §1, §2

Kd | Binder
0.912 nM | B1
1.03 nM | B2
1.02 nM | B3

Molecular target: T9, Human SIRPαV2 (CAA71403.1), Extracellular Domain + His-Tag (human, UniProt P78324 31-373)
T9 construct: also called huSIRPαV2; hSIRPαV2; not shown: His-Tag
Assay: SPR, antibody captured on Protein A/G, ECD-His analyte, 1:1 fit
Procedure, shortened: (§3)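 Biacore 8K+ at HBS-EP+, with antibodies (~1 ug/ml) captured on Protein A/G CM5 surface to ~240 RU. SIRPα ECD-His analyte dilutions injected at 30 μl/min for 300 s association, 600 s dissociation.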

Kd | koff | kon | Binder
0.8 nM | 0.000405 s⁻¹ | 508000 M⁻¹ s⁻¹ | B4
0.9 nM | 0.000443 s⁻¹ | 493000 M⁻¹ s⁻¹ | B5
1.39 nM | 0.000761 s⁻¹ | 549000 M⁻¹ s⁻¹ | B6
1.11 nM | 0.000627 s⁻¹ | 563000 M⁻¹ s⁻¹ | B7
0.97 nM | 0.000399 s⁻¹ | 411000 M⁻¹ s⁻¹ | B8

Molecular target: T10, Human SIRPαV1 (NP_542970.1), Extracellular Domain + His-Tag (human, UniProt P78324 31-373)
T10 construct: also called huSIRPαV1; hSIRPαV1; not shown: His-Tag
Assay: as above
Procedure, shortened: as §3

Kd | koff | kon | Binder
2.36 nM | 0.000955 s⁻¹ | 405000 M⁻¹ s⁻¹ | B4
2.46 nM | 0.00101 s⁻¹ | 410000 M⁻¹ s⁻¹ | B5
4.46 nM | 0.00212 s⁻¹ | 476000 M⁻¹ s⁻¹ | B6
3.42 nM | 0.00164 s⁻¹ | 480000 M⁻¹ s⁻¹ | B7
2.52 nM | 0.000843 s⁻¹ | 334000 M⁻¹ s⁻¹ | B8

Molecular target: T1, cynoSIRPα (XP_015313155), Extracellular …
Assay: as above
Procedure, shortened: as §3

Kd | koff | kon | Binder
43.2 nM | 0.0126 s⁻¹ | 292000 M⁻¹ s⁻¹ | B4
50 nM | 0.0113 s⁻¹ | 226000 M⁻¹ s⁻¹ | B5
108 nM | 0.0245 s⁻¹ | 228000 M⁻¹ s⁻¹ | B6
104 nM | 0.0261 s⁻¹ | 251000 M⁻¹ s⁻¹ | B7
44.7 nM | 0.00687 s⁻¹ | 154000 M⁻¹ s⁻¹ | B8

Molecular target: T2, cynoSIRPα (NP_001271679), Extracellular …
Assay: as above
Procedure, shortened: as §3

Kd | koff | kon | Binder
44.8 nM | 0.0126 s⁻¹ | 282000 M⁻¹ s⁻¹ | B4
52.5 nM | 0.0118 s⁻¹ | 224000 M⁻¹ s⁻¹ | B5
107 nM | 0.0242 s⁻¹ | 225000 M⁻¹ s⁻¹ | B6
111 nM | 0.0278 s⁻¹ | 251000 M⁻¹ s⁻¹ | B7
46.6 nM | 0.00725 s⁻¹ | 156000 M⁻¹ s⁻¹ | B8
158 nM | 0.138 s⁻¹ | 873000 M⁻¹ s⁻¹ | B9

Molecular target: T3, cynoSIRPα (EGM_02252), Extracellular …
Assay: SPR, antibody captured on Protein A/G, ECD-His analyte
Experimental: (§4) The binding kinetics of anti-SIRPα antibodies to various SIRPα analytes are determined by surface plasmon resonance (SPR) using a Biacore 8K+(Cytiva). 1×HBS-EP+(Cytiva) is used as running buffer and for all the dilutions unless stated otherwise. The Series S CM5 sensorchip is activated with a 1:1 mixture of 0.1 M NHS (N-hydroxysuccinimide) and 0.4 M EDC (1-Ethyl-3-(3-dimethylaminopropyl) carbodiimide hydrochloride) for 420 seconds at a flow rate of 10 μl/min and immobilized with Protein A/G (Thermo Scientific, 10 μg/ml in 10 mM acetate pH 4.5) for 420 seconds at a flowrate of 10 μl/min resulting in approximately 3000 RU of Protein A/G on the surface. The sensorchip is then deactivated with 1 M ethanolamine HCl pH 8.5 for 420 seconds at a flowrate of 10 μl/min.
(§5) Antibodies (approximately 1 ug/ml) are captured on the Protein A/G surface for 60 seconds at a flowrate of 10 μl/min resulting in capture levels of approximately 240 RU. Dilutions of each SIRP protein (Extracellular Domain+His-Tag, with the concentrations as indicated) are injected as analytes over the captured antibody for 300 seconds of association at a flowrate of 30 μl/min, followed by a dissociation for 600 seconds.

binding result | Binder
no binding (tested: 1000 nM) | B4
no binding (tested: 1000 nM) | B5
no binding (tested: 1000 nM) | B6
no binding (tested: 1000 nM) | B7
no binding (tested: 1000 nM) | B8

Molecular target: T3, cynoSIRPα (EGM_02252), Extracellular …
Assay: SPR, antibody captured on Protein A/G, ECD-His analyte, steady-state fit
Experimental: as §4, §5
(§6) The above procedures are used to measure binding properties of antibodies of the present disclosure. For each analyte used, the highest concentration was as indicated in Example 3 (see Table 36).

Kd | Binder
258 nM | B9

Molecular target: T1, cynoSIRPα (XP_015313155), Extracellular …
Assay: as above
Experimental: as §4, §5, §6

Kd | Binder
165 nM | B9
